B1: C10orf62 (parent)
chain: RALEEVEMKLQKNFLTQRENTIAG
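Also: lentivirally expressed fusions sorted by FACS into six bins by GFP to DsRed ratio, PSI derived from sequencing read proportions per bin multiplied by bin number.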

Variants of: B1
Assay: protein stability index of a GFP-peptide fusion (GPS, HEK-293T) (PSI 1-6); higher = more stable
Details: c terminus: a fixed tail appended
Variant RALEEVEMKLQKNFITQRENTIAG [L15I] has a protein stability index of 3.71.
With RALEEVEMKLQGNFLTQRENTIAG [K12G] the protein stability index was 3.77.
For RALEEVEMKLQKNFLTQRENTIAE [G24E], the protein stability index was 4.04.
Work on RALEEVEMKLQKNFLTQRENQIAG [T21Q] yielded a protein stability index of 3.85.
Work on RALEEVEGKLQKNFLTQRENTIAG [M8G] yielded a protein stability index of 4.64.
RALEEVEMKLQKNFLTVRENTIAG [Q17V] gave a protein stability index of 3.06.
In the case of RALEEVPMKLQKNFLTQRENTIAG [E7P], the protein stability index is reported as 3.98.
RALEEVEIKLQKNFLTQRENTIAG [M8I] showed a protein stability index of 3.26.
Work on RALEEVEMKLQKQFLTQRENTIAG [N13Q] yielded a protein stability index of 3.4.
RALEEVEMKLQKNFLTQSENTIAG [R18S] gave a protein stability index of 4.18.
With RALEEVEMKLQKNFLTQREMTIAG [N20M] the protein stability index was 3.18.
Variant RALEEVEMKLQKNFLTQRENTIAF [G24F] has a protein stability index of 2.37.
Work on RALEEVEMKLQKNFLTQRENTIYG [A23Y] yielded a protein stability index of 2.91.
With RALEEVEMKLQKNFLTQRENTMAG [I22M] the protein stability index was 3.54.
With RALEEVEMKKQKNFLTQRENTIAG [L10K] the protein stability index was 4.35.
Variant RALEEVEMKRQKNFLTQRENTIAG [L10R] has a protein stability index of 3.4.
For RALEEVEMKLQKNSLTQRENTIAG [F14S], the protein stability index was 4.37.
RALEKVEMKLQKNFLTQRENTIAG [E5K] showed a protein stability index of 3.76.
RALEEYEMKLQKNFLTQRENTIAG [V6Y] gave a protein stability index of 4.03.
Work on RALEEVEMKLQFNFLTQRENTIAG [K12F] yielded a protein stability index of 2.
Work on RALEEVEQKLQKNFLTQRENTIAG [M8Q] yielded a protein stability index of 4.12.
With RALEPVEMKLQKNFLTQRENTIAG [E5P] the protein stability index was 3.19.
Variant RALEEVEMKLQRNFLTQRENTIAG [K12R] has a protein stability index of 3.31.
With RALEEVEMKLQKNFLTQRENTEAG [I22E] the protein stability index was 4.75.
RALEEVEMILQKNFLTQRENTIAG [K9I] gave a protein stability index of 2.08.
In the case of RALEEVEMKLQKNFLTQEENTIAG [R18E], the protein stability index is reported as 4.29.
Work on RALEFVEMKLQKNFLTQRENTIAG [E5F] yielded a protein stability index of 2.11.
RALEEVEMKWQKNFLTQRENTIAG [L10W] gave a protein stability index of 2.88.
In the case of RALEEVEMKLQKNFLTQRENTIAL [G24L], the protein stability index is reported as 2.65.
With RALEEVEMKLQKNFLTQRENSIAG [T21S] the protein stability index was 4.06.
Variant RALEEVQMKLQKNFLTQRENTIAG [E7Q] has a protein stability index of 3.35.
Work on RALEEVEMKLLKNFLTQRENTIAG [Q11L] yielded a protein stability index of 2.28.
RALQEVEMKLQKNFLTQRENTIAG [E4Q] gave a protein stability index of 2.89.
With RALEEVEMKLQKNFLTQRENHIAG [T21H] the protein stability index was 3.69.
RALEEVEMKLQKNFLFQRENTIAG [T16F] gave a protein stability index of 3.26.
For RMLEEVEMKLQKNFLTQRENTIAG [A2M], the protein stability index was 2.6.
RALEEGEMKLQKNFLTQRENTIAG [V6G] showed a protein stability index of 4.3.
For RALEEVEMKLQKNFLTQRSNTIAG [E19S], the protein stability index was 3.37.
For RAIEEVEMKLQKNFLTQRENTIAG [L3I], the protein stability index was 4.17.
In the case of RALEEVEMKLQKNFLTQRENTIKG [A23K], the protein stability index is reported as 4.31.
In the case of RALEEVEMKLQKNFLTQRENYIAG [T21Y], the protein stability index is reported as 2.69.
In the case of RALEEVEMKLQKLFLTQRENTIAG [N13L], the protein stability index is reported as 2.86.
RRLEEVEMKLQKNFLTQRENTIAG [A2R] showed a protein stability index of 3.61.
Work on RALEEVEMKLQKYFLTQRENTIAG [N13Y] yielded a protein stability index of 2.62.
RALTEVEMKLQKNFLTQRENTIAG [E4T] gave a protein stability index of 3.72.
With RELEEVEMKLQKNFLTQRENTIAG [A2E] the protein stability index was 4.41.
In the case of RALEEVEMKLQKNFLNQRENTIAG [T16N], the protein stability index is reported as 2.83.
RALELVEMKLQKNFLTQRENTIAG [E5L] gave a protein stability index of 2.
Work on RALEEVMMKLQKNFLTQRENTIAG [E7M] yielded a protein stability index of 1.33.
Variant RALEEVEMQLQKNFLTQRENTIAG [K9Q] has a protein stability index of 3.13.
Variant RALEEVELKLQKNFLTQRENTIAG [M8L] has a protein stability index of 3.3.
For RALEEVEMKLQKNALTQRENTIAG [F14A], the protein stability index was 4.72.
With RALEEVEMKLQKNFLTSRENTIAG [Q17S] the protein stability index was 3.85.
For RALEEVEMKLQKNFLTQRCNTIAG [E19C], the protein stability index was 2.33.
In the case of RALEEVEMKLQKNFLTQRENTQAG [I22Q], the protein stability index is reported as 4.09.
With RALEEVEMFLQKNFLTQRENTIAG [K9F] the protein stability index was 2.24.
Variant RALEEVEMKLQKNFLTQRENTIAW [G24W] has a protein stability index of 3.48.
MALEEVEMKLQKNFLTQRENTIAG [R1M] showed a protein stability index of 3.33.
In the case of RALEEVEMKLQKNFLTQRENTILG [A23L], the protein stability index is reported as 3.02.
In the case of RALEEVEMKIQKNFLTQRENTIAG [L10I], the protein stability index is reported as 3.5.
Work on RALEEVEMKLQKNFLTLRENTIAG [Q17L] yielded a protein stability index of 3.03.
In the case of RALEEVEMVLQKNFLTQRENTIAG [K9V], the protein stability index is reported as 2.55.
In the case of RALEEVEMKLQKNFLTQREHTIAG [N20H], the protein stability index is reported as 2.85.
Variant RALEEVEMKLQKNFLTQREDTIAG [N20D] has a protein stability index of 3.96.
For RALEEVEMKLQKNFLTQRENTIAK [G24K], the protein stability index was 4.19.
Work on RALEEVEMKLQKCFLTQRENTIAG [N13C] yielded a protein stability index of 3.23.
RALEEVEMKLQKNFLGQRENTIAG [T16G] showed a protein stability index of 4.06.
With RALEEVEMKLQKNFLTKRENTIAG [Q17K] the protein stability index was 3.5.
Variant RALEEVEMKFQKNFLTQRENTIAG [L10F] has a protein stability index of 3.37.
For RALEEVEMKGQKNFLTQRENTIAG [L10G], the protein stability index was 4.29.
With RALEEVECKLQKNFLTQRENTIAG [M8C] the protein stability index was 3.58.
Work on RALEEVEMKLQNNFLTQRENTIAG [K12N] yielded a protein stability index of 4.44.
RALEEVEMKLQKNFATQRENTIAG [L15A] showed a protein stability index of 3.92.
RALECVEMKLQKNFLTQRENTIAG [E5C] gave a protein stability index of 2.21.
With RALEEVEMKLQKNFLTQREWTIAG [N20W] the protein stability index was 2.03.
RALEETEMKLQKNFLTQRENTIAG [V6T] gave a protein stability index of 3.73.
RALEEVEMKLQKNFLTQRYNTIAG [E19Y] gave a protein stability index of 1.81.
Work on RALEEVEMKLQKNFLTQRENTIAR [G24R] yielded a protein stability index of 3.5.
For TALEEVEMKLQKNFLTQRENTIAG [R1T], the protein stability index was 4.32.
Variant RALEEVESKLQKNFLTQRENTIAG [M8S] has a protein stability index of 4.08.
With RALEEVEMKLQKHFLTQRENTIAG [N13H] the protein stability index was 2.72.
In the case of RALEEVEMKLQKNFLTQRENTIAN [G24N], the protein stability index is reported as 3.45.
For RALEEHEMKLQKNFLTQRENTIAG [V6H], the protein stability index was 4.58.
RALEEVEMKLQKNFLTQREETIAG [N20E] gave a protein stability index of 4.17.
RILEEVEMKLQKNFLTQRENTIAG [A2I] showed a protein stability index of 2.66.
For RALEEVERKLQKNFLTQRENTIAG [M8R], the protein stability index was 3.38.
In the case of RALEEVEMKLYKNFLTQRENTIAG [Q11Y], the protein stability index is reported as 2.78.
Work on RALEEVEDKLQKNFLTQRENTIAG [M8D] yielded a protein stability index of 4.6.
In the case of RALEHVEMKLQKNFLTQRENTIAG [E5H], the protein stability index is reported as 3.02.
Variant RALEEDEMKLQKNFLTQRENTIAG [V6D] has a protein stability index of 4.17.
RALEEVEMKDQKNFLTQRENTIAG [L10D] showed a protein stability index of 4.56.
For RALEEREMKLQKNFLTQRENTIAG [V6R], the protein stability index was 4.13.
Work on RALEEVEMKLQKNFLTQRENEIAG [T21E] yielded a protein stability index of 4.16.
For RALEEVFMKLQKNFLTQRENTIAG [E7F], the protein stability index was 2.17.
